Biological target: SH2-GFP-tail substrate with the SH2 domain of human Abl1 (human; yeast) (UniProt P00519)
Experiment: cell-based or functional assay

UniProt P00519, sequence (P00519 other isoform, or with tags, fused parts or gaps, form in doubt): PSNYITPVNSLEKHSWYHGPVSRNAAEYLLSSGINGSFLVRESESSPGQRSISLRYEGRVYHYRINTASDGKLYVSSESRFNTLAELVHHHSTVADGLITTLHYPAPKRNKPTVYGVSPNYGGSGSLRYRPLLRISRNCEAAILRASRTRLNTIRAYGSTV

substrate amount in cell lysate (SDS-PAGE, Typhoon fluorescence, ImageJ) | substrate turnovers per degradon molecule (10 nM degradon, varied substrate, GFP fluorescence) | Substance
4 fold | – | FLAG-hUbL-mB^HA4 (binding degradon; human Rad23b UbL domain fused N-terminally to the HA4 monobody) (from UniProt P54727 1-83) (designed binder)
– | 5 times | UbL-mB^HA4 degradon (yeast Rad23 UbL domain fused N-terminally to the HA4 monobody) (from UniProt P32628 1-77) (designed binder)

— patent publication US20180327462A1
